Reference: patent US20030175364A1, “Process for binding carotenoids to proteins and the products thereof” (priority 2002, published 2003)

Experiment: Binding of lutein to selected proteins at ng scale (hexane extraction, absorbance at 280 and 446 nm)
Protocol: The carotenoid used in this Example 3 was lutein in dry cake form (Kemin Foods, L.C., Des Moines, Iowa). The cake was dissolved in THF at a concentration of approximately 5.28 mM (3 mg lutein in 1 ml THF). Four hundred nanograms of a selected protein (bovine and chicken albumin, gamma-globulins, Kunitz inhibitor, Bowman-Birk inhibitor, whey, and soy protein isolates 873 and 891 from Archer Daniels Midland, DeKalb, Ill.) were added to 200 μl Tris buffer (1.74 g Trizma crystals and 0.42 g calcium chloride added to 250 ml de-ionized H2O, pH 8.74) together with 2 μl of the lutein/THF solution. These reaction solutions were prepared in microcentrifuge tubes (1.5 ml), mixed, and allowed to react at 4° C., overnight, and in the dark. In addition, all reactions were performed in the presence of an alternative metal ion selected from the group Mg^++, Mn^++, Fe^+++, K^+, and Ca^++(MgCl2 6H2O, MnCl24H2O, FeCl3 6H2O, KCl, and CaCl2) at 60 μM concentration.
The hexane wash, vortex and centrifuge procedure was repeated six times. The supernatant was extracted and combined from all six washes and used later to compare absorbance vs. aqueous phase.
Protein and lutein content in the protein solutions and solvents used for extraction were determined by measuring the absorbance at 280 and 446 nm using a spectrophotometer.
The results are compiled and are reported in weight:weight or mol:mol (when available) ratios.

Row | Molecule | Lutein/Protein Ratio mol/mol (Ca^2+ 60 μM) [mol/mol] | Lutein/Protein Ratio w/w (Ca^2+ 60 μM) [w/w] | Lutein/Protein Ratio mol/mol (Fe^3+ 60 μM) [mol/mol] | Lutein/Protein Ratio w/w (Fe^3+ 60 μM) [w/w] | Lutein/Protein Ratio mol/mol (K^+ 60 μM) [mol/mol] | Lutein/Protein Ratio w/w (K^+ 60 μM) [w/w] | Lutein/Protein Ratio mol/mol (Mg^+ 60 μM) | Lutein/Protein Ratio w/w (Mg^+ 60 μM) [w/w] | Lutein/Protein Ratio mol/mol (w/o metal ions) [mol/mol] | Lutein/Protein Ratio w/w (w/o metal ions) [w/w]
1 | Bovine Serum Albumin: bovine albumin | 506 | 4.29 | 365 | 3.1 | 383 | 3.24 | 294 mol/mol | 2.49 | 306 | 2.59
2 | Kunitz: soybean Kunitz proteinase inhibitor (protein, UniProt P01070 25-205, looked up) Trypsin inhibitor A: DFVLDNEGNPLENGGTYYILSDITAFGGIRAAPTGNERCPLTVVQSRNELDKGIGTIISSPYRIRFIAEGHPLSLKFDSFAVIMLCVGIPTEWSVVEDLPEGPAVKIGENKDAMDGWFRLERVSDDEFNNYKLVFCPQQAEDDKCGDIGISIDHDDGTRRLVVSKNKPLVVQFQKLDKESL | 31 | 0.78 | 29 | 0.74 | 24 | 0.6 | 29 mol/mol | 0.74 | 46 | 1.17
3 | Chicken Serum Albumin: chicken albumin (protein, UniProt P19121 24-615, looked up) Albumin: FARDAEHKSEIAHRYNDLKEETFKAVAMITFAQYLQRCSYEGLSKLVKDVVDLAQKCVANEDAPECSKPLPSIILDEICQVEKLRDSYGAMADCCSKADPERNECFLSFKVSQPDFVQPYQRPASDVICQEYQDNRVSFLGHFIYSVARRHPFLYAPAILSFAVDFEHALQSCCKESDVGACLDTKEIVMREKAKGVSVKQQYFCGILKQFGDRVFQARQLIYLSQKYPKAPFSEVSKFVHDSIGVHKECCEGDMVECMDDMARMMSNLCSQQDVFSGKIKDCCEKPIVERSQCIMEAEFDEKPADLPSLVEKYIEDKEVCKSFEAGHDAFMAEFVYEYSRRHPEFSIQLIMRIAKGYESLLEKCCKTDNPAECYANAQEQLNQHIKETQDVVKTNCDLLHDHGEADFLKSILIRYTKKMPQVPTDLLLETGKKMTTIGTKCCQLGEDRRMACSEGYLSIVIHDTCRKQETTPINDNVSQCCSQLYANRRPCFTAMGVDTKYVPPPFNPDMFSFDEKLCSAPAEEREVGQMKLLINLIKRKPQMTEEQIKTIADGFTAMVDKCCKQSDINTCFGEEGANLIVQSRATLGIGA | 67 | 0.84 | 71 | 0.9 | 95 | 1.2 | 116? mol/mol | 1.16 | 105 | 1.33
